# Source: the Immune Epitope Database (IEDB)
# What was measured:
# [1] = target: HLA-A*32:01; experiment: IEDB peptide-MHC binding, purified MHC/competitive/radioactivity; filed as Kd, often an IC50 or EC50 that approximates it; ≥ and ≤ were set here for values at or beyond the usual limits of such assays; details: source organism: Vaccinia virus WR
# [2] = target: HLA-A*01:01; experiment: as above
# [3] = target: HLA-A*23:01; experiment: as above
# [4] = target: HLA-A*24:02; experiment: as above
# [5] = target: HLA-A*26:01; experiment: as above
# [6] = target: HLA-A*29:02; experiment: as above
# [7] = target: HLA-A*30:02; experiment: as above
# [8] = target: HLA-B*57:01; experiment: IEDB peptide-MHC binding, purified MHC/direct/fluorescence; filed as Kd, often an IC50 or EC50 that approximates it; ≥ and ≤ were set here for values at or beyond the usual limits of such assays; details: source organism: Cryptosporidium hominis
# [9] = target: HLA-B*58:01; experiment: as above; details: source organism: Cryptosporidium hominis
# [10] = target: HLA-B*46:01; experiment: IEDB peptide-MHC binding, purified MHC/competitive/fluorescence; filed as Kd, often an IC50 or EC50 that approximates it; ≥ and ≤ were set here for values at or beyond the usual limits of such assays; details: source organism: Cryptosporidium parvum Iowa II
# [11] = target: HLA-B*44:02; experiment: IEDB peptide-MHC binding, purified MHC/competitive/radioactivity; filed as Kd, often an IC50 or EC50 that approximates it; ≥ and ≤ were set here for values at or beyond the usual limits of such assays; details: source organism: Dengue virus 3 Martinique/1243/1999
# [12] = target: HLA-B*44:03; experiment: as above; details: source organism: Dengue virus 3 Martinique/1243/1999
# [13] = source organism: SARS coronavirus Tor2
# [14] = source organism: Mammarenavirus machupoense
# [15] = source organism: Lassa virus GA391
Sequence,"Kd [2, 13] [µM]","Kd [3, 13] [µM]","Kd [4, 13] [µM]","Kd [5, 13] [µM]","Kd [6, 13] [µM]","Kd [7, 13] [µM]",also measured
ITYPKALVF,–,–,–,–,–,–,Kd [1]: 0.00302 µM
VMMSAPPAEY,0.154,≥ 39.9,≥ 35.6,9.02,0.00316,0.00431,–
MSFSDTFEM,–,–,–,–,–,–,Kd [8]: 0.0553 µM; Kd [9]: 0.0006 µM; Kd [10]: 0.205 µM
AMGKPVPYCY,1.99,≥ 70,≥ 70.3,≥ 49.4,0.0895,0.0011,–
VGIPTHRHL,–,–,–,–,–,–,"Kd [2, 14]: ≥ 69.4 µM; Kd [3, 14]: 14 µM; Kd [4, 14]: ≥ 40.3 µM; Kd [5, 14]: ≥ 77.9 µM; Kd [6, 14]: ≥ 78.9 µM; Kd [7, 14]: 14.3 µM"
YTTTIKPVSY,0.0416,≥ 70,≥ 70.3,0.878,0.0316,1.02,–
EGNETPGGY,–,–,–,–,–,–,"Kd [2, 15]: ≥ 20.9 µM; Kd [3, 15]: 0.174 µM; Kd [4, 15]: 1.21 µM; Kd [5, 15]: ≥ 77.9 µM; Kd [6, 15]: 18.6 µM; Kd [7, 15]: ≥ 76.9 µM"
PYNSVTDTI,≥ 78.1,0.0203,0.00716,≥ 77.9,6.82,≥ 81.1,–
EEHNSTWHY,–,–,–,–,–,–,Kd [11]: 0.0153 µM; Kd [12]: 0.0681 µM
